# Patent US20200024322A1 (Eli Lilly, published 2020)
# Numbered stars: 1 amine (or outer) side, 2 acyl side, 3 side chain; on linkers, the order of the positions; unused ones are H or OH. Square brackets hold non-standard residues; d marks the D form. Side chains are listed from the residue outwards. Ends that are not written are not given here. * marks the point of attachment. C20 diacid = O=C(O)CCCCCCCCCCCCCCCCCCC(=O)*; C18 diacid = O=C(O)CCCCCCCCCCCCCCCCC(=O)*; γGlu = O=C(O)[C@H](CCC(=O)[*:2])N[*:1]; AEEA = NCCOCCOCC(=O)O; Aib = CC(C)(N)C(=O)O
# T1: human GIP receptor (human, UniProt P48546 22-466)
# T1 construct: whole, on cells; also called hGIPR; hGIP-R
# T1 sequence (looked up): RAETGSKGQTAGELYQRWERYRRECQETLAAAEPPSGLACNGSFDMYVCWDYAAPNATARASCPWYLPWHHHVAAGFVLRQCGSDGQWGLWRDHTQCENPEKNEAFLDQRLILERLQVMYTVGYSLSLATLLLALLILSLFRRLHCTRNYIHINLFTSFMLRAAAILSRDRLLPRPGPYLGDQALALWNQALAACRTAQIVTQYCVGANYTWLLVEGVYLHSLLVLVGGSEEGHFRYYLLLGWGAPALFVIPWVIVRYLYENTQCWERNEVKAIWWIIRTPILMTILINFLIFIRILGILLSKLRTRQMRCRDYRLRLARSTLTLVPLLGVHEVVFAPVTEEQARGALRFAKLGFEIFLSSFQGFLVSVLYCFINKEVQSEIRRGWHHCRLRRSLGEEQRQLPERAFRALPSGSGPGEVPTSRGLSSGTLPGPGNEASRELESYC
# What was measured:
# human GIP receptor = molecular target: T1, human GIP receptor; assay: [125I]-GIP competition SPA, hGIPR membranes
# human glucagon receptor = molecular target: T2, human glucagon receptor (human, UniProt P47871 26-477); assay: [125I]-Gcg competition SPA, hGcgR membranes
# T2 construct: whole, on cells; also called hGcgR; GcgR
# human GLP-1 receptor = molecular target: T3, human GLP-1 receptor (human, UniProt P43220 24-463); assay: [125I]-GLP-1 competition SPA, hGLP-1R membranes
# T3 construct: whole, on cells; also called hGLP-1R; hGLP1R
# Method in brief: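 Kᵢ values are geometric means (SEM) over replicates run on separate days, derived from IC₅₀ of four-parameter curve fits. Buffer: HEPES 25 mM pH 7.4 with CaCl₂ 2.5 mM, MgCl₂ 1 mM, bacitracin 0.1%, TWEEN-20 0.003%, EDTA-free protease inhibitors.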
# T2 sequence (P47871 26-477): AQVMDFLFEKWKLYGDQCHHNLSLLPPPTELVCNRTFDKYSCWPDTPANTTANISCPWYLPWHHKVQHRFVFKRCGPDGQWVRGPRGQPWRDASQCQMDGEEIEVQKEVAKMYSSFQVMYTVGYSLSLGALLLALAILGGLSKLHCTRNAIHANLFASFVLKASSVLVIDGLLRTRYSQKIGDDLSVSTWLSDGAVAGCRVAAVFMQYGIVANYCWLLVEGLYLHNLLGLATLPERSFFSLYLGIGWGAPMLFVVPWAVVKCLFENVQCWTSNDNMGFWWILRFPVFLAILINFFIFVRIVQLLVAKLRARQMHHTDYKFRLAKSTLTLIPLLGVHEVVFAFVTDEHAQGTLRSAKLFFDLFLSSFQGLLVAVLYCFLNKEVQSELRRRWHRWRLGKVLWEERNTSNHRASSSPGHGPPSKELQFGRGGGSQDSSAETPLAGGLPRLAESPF
Binder,Ki (human GIP receptor),Ki (human glucagon receptor),Ki (human GLP-1 receptor)
Y[Aib]EGTFTSDYSILLDKK([AEEA-AEEA-γGlu-C18 diacid])AQ[Aib]AFIEYLIEGG-NH2 (N-terminus assumed; SMILES CC[C@H](C)[C@H](NC(=O)[C@H](CC(C)C)NC(=O)[C@H](Cc1ccc(O)cc1)NC(=O)[C@H](CCC(=O)O)NC(=O)[C@@H](NC(=O)[C@H](Cc1ccccc1)NC(=O)[C@H](C)NC(=O)C(C)(C)NC(=O)[C@H](CCC(N)=O)NC(=O)[C@H](C)NC(=O)[C@H](CCCCNC(=O)COCCOCCNC(=O)COCCOCCNC(=O)CC[C@H](NC(=O)CCCCCCCCCCCCCCCCC(=O)O)C(=O)O)NC(=O)[C@H](CCCCN)NC(=O)[C@H](CC(=O)O)NC(=O)[C@H](CC(C)C)NC(=O)[C@H](CC(C)C)NC(=O)[C@@H](NC(=O)[C@H](CO)NC(=O)[C@H](Cc1ccc(O)cc1)NC(=O)[C@H](CC(=O)O)NC(=O)[C@H](CO)NC(=O)[C@@H](NC(=O)[C@H](Cc1ccccc1)NC(=O)[C@@H](NC(=O)CNC(=O)[C@H](CCC(=O)O)NC(=O)C(C)(C)NC(=O)[C@@H](N)Cc1ccc(O)cc1)[C@@H](C)O)[C@@H](C)O)[C@@H](C)CC)[C@@H](C)CC)C(=O)N[C@@H](CCC(=O)O)C(=O)NCC(=O)NCC(N)=O) [Example 267],0.0628 nM,349 nM,1.57 nM
Y[Aib]EGTFTSDYSILLDKK([AEEA-AEEA-γGlu-C18 diacid])AQ[Aib]AFIEYLIAGG-NH2 (N-terminus assumed; SMILES CC[C@H](C)[C@H](NC(=O)[C@H](CC(C)C)NC(=O)[C@H](Cc1ccc(O)cc1)NC(=O)[C@H](CCC(=O)O)NC(=O)[C@@H](NC(=O)[C@H](Cc1ccccc1)NC(=O)[C@H](C)NC(=O)C(C)(C)NC(=O)[C@H](CCC(N)=O)NC(=O)[C@H](C)NC(=O)[C@H](CCCCNC(=O)COCCOCCNC(=O)COCCOCCNC(=O)CC[C@H](NC(=O)CCCCCCCCCCCCCCCCC(=O)O)C(=O)O)NC(=O)[C@H](CCCCN)NC(=O)[C@H](CC(=O)O)NC(=O)[C@H](CC(C)C)NC(=O)[C@H](CC(C)C)NC(=O)[C@@H](NC(=O)[C@H](CO)NC(=O)[C@H](Cc1ccc(O)cc1)NC(=O)[C@H](CC(=O)O)NC(=O)[C@H](CO)NC(=O)[C@@H](NC(=O)[C@H](Cc1ccccc1)NC(=O)[C@@H](NC(=O)CNC(=O)[C@H](CCC(=O)O)NC(=O)C(C)(C)NC(=O)[C@@H](N)Cc1ccc(O)cc1)[C@@H](C)O)[C@@H](C)O)[C@@H](C)CC)[C@@H](C)CC)C(=O)N[C@@H](C)C(=O)NCC(=O)NCC(N)=O) [Example 273],0.0698 nM,724 nM,1.13 nM
"Y[Aib]EGTFTSDYSILLDKK([AEEA-AEEA-γGlu-C20 diacid])AQ[Aib]AFIEYLIAGGPSSGAPPPS-NH2 (N-terminus assumed; SMILES CC[C@H](C)[C@H](NC(=O)[C@H](CC(C)C)NC(=O)[C@H](Cc1ccc(O)cc1)NC(=O)[C@H](CCC(=O)O)NC(=O)[C@@H](NC(=O)[C@H](Cc1ccccc1)NC(=O)[C@H](C)NC(=O)C(C)(C)NC(=O)[C@H](CCC(N)=O)NC(=O)[C@H](C)NC(=O)[C@H](CCCCNC(=O)COCCOCCNC(=O)COCCOCCNC(=O)CC[C@H](NC(=O)CCCCCCCCCCCCCCCCCCC(=O)O)C(=O)O)NC(=O)[C@H](CCCCN)NC(=O)[C@H](CC(=O)O)NC(=O)[C@H](CC(C)C)NC(=O)[C@H](CC(C)C)NC(=O)[C@@H](NC(=O)[C@H](CO)NC(=O)[C@H](Cc1ccc(O)cc1)NC(=O)[C@H](CC(=O)O)NC(=O)[C@H](CO)NC(=O)[C@@H](NC(=O)[C@H](Cc1ccccc1)NC(=O)[C@@H](NC(=O)CNC(=O)[C@H](CCC(=O)O)NC(=O)C(C)(C)NC(=O)[C@@H](N)Cc1ccc(O)cc1)[C@@H](C)O)[C@@H](C)O)[C@@H](C)CC)[C@@H](C)CC)C(=O)N[C@@H](C)C(=O)NCC(=O)NCC(=O)N1CCC[C@H]1C(=O)N[C@@H](CO)C(=O)N[C@@H](CO)C(=O)NCC(=O)N[C@@H](C)C(=O)N1CCC[C@H]1C(=O)N1CCC[C@H]1C(=O)N1CCC[C@H]1C(=O)N[C@@H](CO)C(N)=O, also called GG-709) [Example 288]",0.058 nM,345 nM,1.6 nM
F[Aib]EGTFTSDYSILLDKK([AEEA-AEEA-γGlu-C20 diacid])AQ[Aib]AFIEYLIEGGPSSGAPPPS-NH2 [Example 326],0.251 nM,207 nM,2.92 nM
YXEGTFTSDYSIXLDKKAQXAFIEYLIAGGPSSGAPPPS (Aib2; αMeL13; K17((2-[2-(2-Amino-ethoxy)-ethoxy]-acetyl)2-(γ-Glu)-CO-(CH2)18-CO2H); Aib20; C-terminal NH2) [Example 324],0.0278 nM,449 nM,0.609 nM
XXEGTFTSDYSIXLDXKAQXEFIEXLIAGGPSSGAPPPS (D-Tyr1; Aib2; αMeL13; Orn16; K17((2-[2-(2-Amino-ethoxy)-ethoxy]-acetyl)2-(γ-Glu)-CO-(CH2)18-CO2H); Aib20; αMeY25; C-terminal NH2) [Example 293],0.0775 nM,668 nM,1.64 nM
XXEGTFTSDYSIXLDKKAQXAFIEYLIAGGPSSGAPPPS (D-Tyr1; Aib2; αMeL13; K17((2-[2-(2-Amino-ethoxy)-ethoxy]-acetyl)2-(γ-Glu)-CO-(CH2)18-CO2H); Aib20; C-terminal NH2) [Example 340],0.0507 nM,250 nM,2.08 nM
XXEGTFTSDYSIXLDKKAQXEFIEXLIAGGPSSGAPPPS (D-Tyr1; Aib2; αMeL13; K17((2-[2-(2-Amino-ethoxy)-ethoxy]-acetyl)2-(γ-Glu)-CO-(CH2)18-CO2H); Aib20; αMeY25; C-terminal NH2) [Example 292],0.0547 nM,595 nM,1.19 nM
YXEGTFTSDYSIXLDEKAQXAFIEYLIEGGPSSGAPPPS (Aib2; αMeL13; K17((2-[2-(2-Amino-ethoxy)-ethoxy]-acetyl)2-(γ-Glu)-CO-(CH2)16-CO2H); Aib20; C-terminal NH2) [Example 323],0.0516 nM,300 nM,1.65 nM
FXEGTFTSDYSIXLDKKAQXAFIEYLIAGGPSSGAPPPS (Aib2; αMeL13; K17((2-[2-(2-Amino-ethoxy)-ethoxy]-acetyl)2-(γ-Glu)-CO-(CH2)18-CO2H); Aib20; C-terminal NH2) [Example 337],0.0363 nM,335 nM,1.61 nM
XXEGTFTSDYSIXLDEKAQXAFIEYLIAGGPSSGAPPPS (D-Tyr1; Aib2; αMeL13; K17((2-[2-(2-Amino-ethoxy)-ethoxy]-acetyl)2-(γ-Glu)-CO-(CH2)18-CO2H); Aib20; C-terminal NH2) [Example 341],0.0559 nM,39.7 nM,6.49 nM
XXEGTFTSDYSIXLDKKAQXAFIEYLIEGGPSSGAPPPS (D-Tyr1; Aib2; αMeL13; K17((2-[2-(2-Amino-ethoxy)-ethoxy]-acetyl)2-(γ-Glu)-CO-(CH2)18-CO2H); Aib20; C-terminal NH2) [Example 334],0.0646 nM,192 nM,2.17 nM
XXEGTFTSDYSIXLDKKAQXEFIEYLIAGGPSSGAPPPS (D-Tyr1; Aib2; αMeL13; K17((2-[2-(2-Amino-ethoxy)-ethoxy]-acetyl)2-(γ-Glu)-CO-(CH2)18-CO2H); Aib20; C-terminal NH2) [Example 290],0.0617 nM,308 nM,2.44 nM
YXEGTFTSDYSIXLDEKAQXAFIEYLIAGGPSSGAPPPS (Aib2; αMeL13; K17((2-[2-(2-Amino-ethoxy)-ethoxy]-acetyl)2-(γ-Glu)-CO-(CH2)18-CO2H); Aib20; C-terminal NH2) [Example 332],0.0497 nM,397 nM,7.87 nM
FXEGTFTSDYSIXLDKKAQXAFIEYLIEGGPSSGAPPPS (Aib2; αMeL13; K17((2-[2-(2-Amino-ethoxy)-ethoxy]-acetyl)2-(γ-Glu)-CO-(CH2)18-CO2H); Aib20; C-terminal NH2) [Example 327],0.0667 nM,114 nM,2.1 nM
YXEGTFTSDYSIXLDKKAQXEFIEYLIEGGPSSGAPPPS (Aib2; αMeL13; K17((2-[2-(2-Amino-ethoxy)-ethoxy]-acetyl)2-(γ-Glu)-CO-(CH2)18-CO2H); Aib20; C-terminal NH2) [Example 333],0.0634 nM,578 nM,4.25 nM
YXEGTFTSDYSIXLDKKAQXEFIEYLIAGGPSSGAPPPS (Aib2; αMeL13; K17((2-[2-(2-Amino-ethoxy)-ethoxy]-acetyl)-(γ-Glu)-CO-(CH2)18-CO2H); Aib20; C-terminal NH2) [Example 339],0.0388 nM,873 nM,2.69 nM
